{
  "source": "patent US20220127633A1",
  "key": {"[1]": {"biological_target": "TIR1 receptor protein with 6 His, maltose-binding protein (MBP) and FLAG affinity tags, expressed in insect cell culture using a recombinant baculovirus (UniProt Q570C0)", "assay": "SPR; with 2,4-D"}, "[2]": {"biological_target": "TIR1 receptor protein with 6 His, maltose-binding protein (MBP) and FLAG affinity tags, expressed in insect cell culture using a recombinant baculovirus (UniProt Q570C0)", "assay": "SPR; with dicamba"}, "[3]": {"biological_target": "TIR1 receptor protein with 6 His, maltose-binding protein (MBP) and FLAG affinity tags, expressed in insect cell culture using a recombinant baculovirus (UniProt Q570C0)", "assay": "SPR; with IAA (auxin)"}},
  "data": [
    {"substance": "biotinylated Sisymbrium orientale IAA2 wild-type degron peptide", "values": [
      {"measurement": "koff", "setting": "[1]", "value": "1.93E-03 ?"},
      {"measurement": "koff", "setting": "[2]", "value": "3.29E-02 ?"},
      {"measurement": "koff", "setting": "[3]", "value": "2.08E-04 ?"}
    ]},
    {"substance": "biotinylated Sisymbrium orientale IAA2Δ27 degron peptide (9 amino acid deletion in the degron tail)", "values": [
      {"measurement": "koff", "setting": "[1]", "value": "2.71E-03 ?"},
      {"measurement": "koff", "setting": "[2]", "value": "4.04E-02 ?"},
      {"measurement": "koff", "setting": "[3]", "value": "5.01E-04 ?"}
    ]}
  ]
}
